Measured values published in article PMC9076830, “Structure of the Arabidopsis guard cell anion channel SLAC1 suggests activation mechanism by phosphorylation” (Nature Communications, 2022).

Molecular target: the molecule itself
Test: cryo-EM structure; single-particle analysis of purified AtSLAC1 S59A in 25 mM HEPES pH 7.4, 150 mM NaCl, 0.03% digitonin; final refinement with C3 symmetry; 2.7 Å

B1: Arabidopsis thaliana slow anion channel 1 (AtSLAC1) S59A mutant (natural protein, UniProt Q9LD83 1-556, looked up)
chain: MERKQSNAHSTFADINEVEDEAEQELQQQENNNNKRFSGNRGPNRGKQRPFRGFSRQVALETGFSVLNRESRERDDKKSLPRSGRSFGGFESGGIINGGDGRKTDFSMFRTKSTLSKQKSLLPSIIRERDIENSLRTEDGETKDDSINENVSAGRYFAALRGPELDEVKDNEDILLPKEEQWPFLLRFPIGCFGICLGLSSQAVLWLALAKSPATNFLHITPLINLVVWLFSLVVLVSVSFTYILKCIFYFEAVKREYFHPVRVNFFFAPWVVCMFLAISVPPMFSPNRKYLHPAIWCVFMGPYFFLELKIYGQWLSGGKRRLCKVANPSSHLSVVGNFVGAILASKVGWDEVAKFLWAVGFAHYLVVFVTLYQRLPTSEALPKELHPVYSMFIAAPSAASIAWNTIYGQFDGCSRTCFFIALFLYISLVARINFFTGFKFSVAWWSYTFPMTTASVATIKYAEAVPGYPSRALALTLSFISTAMVCVLFVSTLLHAFVWQTLFPNDLAIAITKRKLTREKKPFKRAYDLKRWTKQALAKKISAEKDFEAEEESHH
modifications: S146 and S543 identified as phosphorylated by mass spectrometry of the purified S59A mutant
notes: Slow anion channel 1 (SLAC1), Arabidopsis thaliana, full length, 556 residues; codon-optimised synthetic DNA; residues 150-517 modelled in the structure; No step that removes the tags is described; not shown: Flag, N-terminal, kept
  stoichiometry N: 3
